Assay results reported in article PMC2929978 (Science (New York, N.Y.), 2010).

Columns and labels:
Assay in all cases: crystal structure
[1] = biological target: fiber protein derived from HAdV-35 (fiber of Ad35F) (human adenovirus 35 (HAdV-35))
crystal structure = biological target: the molecule itself
[2] = biological target: hexon (major capsid protein) of the HAdV-5 vector Ad35F (human adenovirus 5 (HAdV-5), UniProt P04133 1-952)

**Q.** For “fiber protein derived from HAdV-35 (fiber of Ad35F) (natural protein)”, which stoichiometry N [1] is on record?
**A.** 3

B1: penton base (PB) of the HAdV-5 vector Ad35F (natural protein)
chain: MRRAAMYEEGPPPSYESVVSAAPVAAALGSPFDAPLDPPFVPPRYLRPTGGRNSIRYSELAPLFDTTRVYLVDNKSTDVASLNYQNDHSNFLTTVIQNNDYSPGEASTQTINLDDRSHWGGDLKTILHTNMPNVNEFMFTNKFKARVMVSRLPTKDNQVELKYEWVEFTLPEGNYSETMTIDLMNNAIVEHYLKVGRQNGVLESDIGVKFDTRNFRLGFDPVTGLVMPGVYTNEAFHPDIILLPGCGVDFTHSRLSNLLGIRKRQPFQEGFRITYDDLEGGNIPALLDVDAYQASLKDDTEQGGGGAGGSNSSGSGAEENSNAAAAAMQPVEDMNDHAIRGDTFATRAEEKRAEAEAAAEAAAPAAQPEVEKPQKKPVIKPLTEDSKKRSYNLISNDSTFTQYRSWYLAYNYGDPQTGIRSWTLLCTPDVTCGSEQVYWSLPDMMQDPVTFRSTRQISNFPVVGAELLPVHSKSFYNDQAVYSQLIRQFTSLTHVFNRFPENQILARPPAPTITTVSENVPALTDHGTLPLRNSIGGVQRVTITDARRRTCPYVYKALGIVSPRVLSSRTF
**Q.** Which “stoichiometry N” value (crystal structure) does the source give for B1 here?
**A.** 5

B2: protein IX of the HAdV-5 vector Ad35F (natural protein)
chain: MSTNSFDGSIVSSYLTTRMPPWAGVRQNVMGSSIDGRPVLPANSTTLTYETVSGTPLETAASAAASAAAATARGIVTDFAFLSPLASSAASRSSARDDKLTALLAQLDSLTRELNVVSQQLLDLRQQVSALKASSPPNAV
**Q.** Does B2 bind [2]?
**A.** binds
